Experimental findings from patent US5998583, “BH3 interacting domain death agonist” (Washington University, dated 1999) are described below.

Experiment [1] concerns the target human BCL-2 (in FL5.12-Bcl-2 cells) (human, UniProt P10415). Put plainly: In Vitro and In Vivo BCL-2 Binding (summary: GST pull-down and anti-BID immunoprecipitation with anti-BCL-2 blot).
In experiment [2] the target is BAX (in FL5.12-Bcl-2 cells) (murine, UniProt Q07813). Nature of the experiment: In Vitro and In Vivo BAX Binding (summary: GST pull-down and anti-BID immunoprecipitation with anti-BAX blot).

B1: BIDmIII-1 (M97A,D98A) (other)
chain: MDSEVSNGSGLGAKHITDLLVFGFLQSSGCTRQELEVLGRELPVQAYWEADLEDELQTDGSQASRSFNQGRIEPDSESQEEIIHNIARHLAQIGDEAAHNIQPTLVRQLAAQFMNGSLSEEDKRNCLAKALDEVKTAFPRDMENDKAMLIMTMLLAKKVASHAPSLLRDVFHTTVNFINQNLFSYVRNLVRNEMD
As to B1, the binding result in experiment [1] was “no binding”.

B2: BIDmIII-3 (G94A) (other)
chain: MDSEVSNGSGLGAKHITDLLVFGFLQSSGCTRQELEVLGRELPVQAYWEADLEDELQTDGSQASRSFNQGRIEPDSESQEEIIHNIARHLAQIADEMDHNIQPTLVRQLAAQFMNGSLSEEDKRNCLAKALDEVKTAFPRDMENDKAMLIMTMLLAKKVASHAPSLLRDVFHTTVNFINQNLFSYVRNLVRNEMD
Regarding B2, in experiment [2], the binding result is “no binding”.
